Experimental data reported in US20210115138A1.

Key:
[1] = biological target: human LAG-3 protein (Example 3) (human) (UniProt P18627); assay: SPR
[2] = biological target: human LAG-3 on cells (human) (UniProt P18627); assay: FACS on cell surface human LAG-3
[3] = biological target: human LAG-3 on cells (human) (UniProt P18627); assay: FACS affinity test on cell surface human LAG-3
[4] = biological target: human LAG-3 protein (Example 3) (human) (UniProt P18627); assay: ELISA; blocking of LAG-3 protein binding to LSECtin
[5] = biological target: human LAG-3 protein (Example 3) (human) (UniProt P18627); assay: ELISA; blocking of LAG-3 protein binding to Galectin-3
[6] = biological target: human LAG-3 protein (Example 3) (human) (UniProt P18627); assay: FACS; blocking of LAG-3 protein binding to MHC-II on Raji cells

Sequence of human LAG-3 protein (Example 3) (human) (P18627 23-450 limits assumed): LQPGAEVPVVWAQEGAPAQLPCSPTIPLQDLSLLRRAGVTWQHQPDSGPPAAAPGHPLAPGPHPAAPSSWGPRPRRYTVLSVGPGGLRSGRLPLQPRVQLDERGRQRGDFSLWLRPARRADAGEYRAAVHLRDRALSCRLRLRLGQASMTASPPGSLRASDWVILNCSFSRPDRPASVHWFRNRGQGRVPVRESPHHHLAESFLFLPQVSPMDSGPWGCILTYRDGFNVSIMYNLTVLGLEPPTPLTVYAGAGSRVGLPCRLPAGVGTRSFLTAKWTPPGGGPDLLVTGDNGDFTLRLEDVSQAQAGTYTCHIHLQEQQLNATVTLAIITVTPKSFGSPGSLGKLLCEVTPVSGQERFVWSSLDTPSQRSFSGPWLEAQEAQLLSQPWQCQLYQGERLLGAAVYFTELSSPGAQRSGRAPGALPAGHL
Sequence of human LAG-3 on cells (human) (P18627 23-525): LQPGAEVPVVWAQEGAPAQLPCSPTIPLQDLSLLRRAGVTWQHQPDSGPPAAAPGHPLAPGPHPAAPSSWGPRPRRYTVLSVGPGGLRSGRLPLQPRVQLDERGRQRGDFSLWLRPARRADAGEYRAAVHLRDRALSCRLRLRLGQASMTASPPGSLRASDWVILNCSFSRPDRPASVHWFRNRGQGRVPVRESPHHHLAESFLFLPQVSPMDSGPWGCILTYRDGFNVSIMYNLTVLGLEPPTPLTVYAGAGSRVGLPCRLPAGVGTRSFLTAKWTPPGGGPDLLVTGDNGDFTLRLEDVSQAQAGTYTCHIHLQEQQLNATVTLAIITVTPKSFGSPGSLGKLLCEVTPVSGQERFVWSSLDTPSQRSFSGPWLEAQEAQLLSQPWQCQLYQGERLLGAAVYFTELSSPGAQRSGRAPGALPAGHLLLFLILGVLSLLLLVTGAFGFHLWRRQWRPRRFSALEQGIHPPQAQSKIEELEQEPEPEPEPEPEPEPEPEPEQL

Kd [1]: 0.497 nM
EC50 [2]: 0.61 nM
Kd [3]: 0.58 nM
EC50 [4]: 0.59 nM
EC50 [5]: 0.79 nM
EC50 [6]: 1.25 nM
B1: BMK7 (antibody, INN chains, looked up, V domains shown)
VH: QVQLVESGGGVVQPGRSLRLSCVASGFTFSSYGMHWVRQAPGKGLEWVAIIWYDGSNKYYADSVKGRFTISRDNSKNTQYLQMNSLRAEDTAVYYCASVATSGDFDYYGMDVWGQGTTVTVSS
VL: EIVLTQSPATLSLSPGERTTLSCRASQRISTYLAWYQQKPGQAPRLLIYDASKRATGIPARFSGSGSGTGFTLTISSLEPEDFAVYYCQQRSNWPLTFGGGTKVEIK
